Test results from patent US20190062442A1 (AstraZeneca / MedImmune, published 2019).
Where a chain is given by its changes, count along the chain named.

Assays:
[1] = target: T1, FLAG-tagged Cynomolgus PrP^c_N1 (cynomolgus monkey, UniProt P67992 23-111); assay: direct HTRF binding assay
T1 sequence: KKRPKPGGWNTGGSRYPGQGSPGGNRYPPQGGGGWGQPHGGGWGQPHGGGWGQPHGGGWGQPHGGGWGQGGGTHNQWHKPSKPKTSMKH

[2] = target: T2, FLAG-tagged human PrP^c_N1 (recombinant N-terminal fragment of cellular prion protein, 23-111 amino-acids) (human, UniProt P04156 23-111)
T2 sequence: T1 sequence with N75S, H78N, S86N

[3] = target: T3, Human PrP^c_N1_Flag His protein (human, UniProt P04156 23-111)
T3 sequence: T1 sequence with N75S, H78N, S86N

[4] = target: full length cynomolgus PrP^c present on the cynomolgus CynoMK-1 cell line (cynomolgus monkey, UniProt P67992 23-230); assay: flow cytometry, antibody at 5 µg/ml

B1: PrP^c-O0059 Hu IgG1 (antibody, V domains shown)
VH: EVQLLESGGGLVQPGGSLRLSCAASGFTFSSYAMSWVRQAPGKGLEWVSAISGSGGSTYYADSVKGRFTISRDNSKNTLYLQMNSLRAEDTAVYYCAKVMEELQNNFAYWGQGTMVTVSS
VL: QSVLTQPPSASGTPGQRVTISCSGERSDIGINYVSWYQQLPGTAPKLLIYTDDRRPPGVPDRFSASKSGTSASLAISGLRSEDEADYYCEAWHDVLGHPVFGGGTKLTVL
Q: Does B1 bind [1]?
A: binds

Q: What about the IC50 [2] of the same binder?
A: 0.225 nM

Q: What about the Kd [3] of the same binder?
A: 0.0235 nM

Q: What about the koff [3] of the same binder?
A: 1.33e-05 s⁻¹

Q: What about the kon [3] of the same binder?
A: 564000 M⁻¹ s⁻¹

Q: Does B1 bind [4]?
A: binds
